# Measured values as given in patent US20090188009A1, “HEAT SHOCK RNA FROM VARIOUS SPECIES AND ITS USE IN ACTIVATION OF HEAT SHOCK TRANSCRIPTION FACTOR, IN TREATMENT OF VARIOUS DISEASES IN ANIMALS AND IN GENERATION OF STRESS-RESISTANT PLANTS” (New York University, published 2009).
# Key:
# [1] = target: purified recombinant mouse HSF1 (heat shock transcription factor 1), released from GST-HSF1 by thrombin cleavage (mouse) (UniProt P38532); experiment: cell-based or functional assay
# HSF1 = HSF1 (Mus musculus, UniProt P38532 P38532:1-525); experiment: EMSA; trimeric HSF1 activated by eEF1A plus HSR1 (BHK, HeLa or T3 sense transcript); about 5% of HSF1 activated; 1.5 mM MgCl2, 2 mM DTT; settings: tags: expressed as N-terminal GST fusion from pGex-2T in E. coli, thrombin cleaved; chain copies: 3; label: 32P end
# Procedure: cDNAs of HSR1 were cloned from both HeLa and BHK cells (see Methods), and the coding strand was identified in a functional assay (FIG. 5A). As shown in the upper panel of FIG. 5A, the sense (T3) and antisense (T7) HSR1s were transcribed in vitro by T3 and T7 RNA polymerases, respectively, from PCR fragments carrying T3 or T7 promoters on each side of HSR1. The resulting synthetic RNAs were tested in the minimal HSF1 activating system (FIG. 5A, lower panel). For the reconstitution experiment shown in FIG. 5A, recombinant mouse HSF1 was used along with eEF1A purified from rat liver (as described above). HSR1 isolated from heat-shocked BHK or HeLa cells (lanes 7, 8) and HSR1-T3 (lane 10) activated HSF when added together with purified eEF1A. However, neither component alone was capable of activating HSF1 (lanes 2-6). The slight stimulating effect of isolated eEF1A (lane 2) on HSF1 activation results from the residual amount of co-purified HSR1, and could be eliminated by RNAse A treatment. In FIG. 5A, quantitation of HSF1 activation is presented as the fold increase relative to a background control. Under these conditions, about 5% of the total HSF1 was activated.
# Sequence of HSF1 (P38532 whole entry, the tested form may be a part, one chain of several): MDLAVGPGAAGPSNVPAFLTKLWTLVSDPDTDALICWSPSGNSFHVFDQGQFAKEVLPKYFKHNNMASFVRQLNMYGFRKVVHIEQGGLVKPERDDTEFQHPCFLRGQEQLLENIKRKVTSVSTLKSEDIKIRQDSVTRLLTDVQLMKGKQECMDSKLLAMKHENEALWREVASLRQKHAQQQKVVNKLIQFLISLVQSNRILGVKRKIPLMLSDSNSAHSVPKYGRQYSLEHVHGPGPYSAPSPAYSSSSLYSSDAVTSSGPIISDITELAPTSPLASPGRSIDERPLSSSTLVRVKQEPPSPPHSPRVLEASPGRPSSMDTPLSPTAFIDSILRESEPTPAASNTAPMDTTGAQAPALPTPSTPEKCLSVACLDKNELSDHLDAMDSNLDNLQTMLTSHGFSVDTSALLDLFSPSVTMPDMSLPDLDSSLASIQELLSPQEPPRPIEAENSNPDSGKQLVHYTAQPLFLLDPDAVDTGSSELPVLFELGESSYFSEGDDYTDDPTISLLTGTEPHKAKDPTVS
# Sequence of purified recombinant mouse HSF1 (heat shock transcription factor 1), released from GST-HSF1 by thrombin cleavage (mouse) (P38532 other isoform, or with tags, fused parts or gaps limits assumed): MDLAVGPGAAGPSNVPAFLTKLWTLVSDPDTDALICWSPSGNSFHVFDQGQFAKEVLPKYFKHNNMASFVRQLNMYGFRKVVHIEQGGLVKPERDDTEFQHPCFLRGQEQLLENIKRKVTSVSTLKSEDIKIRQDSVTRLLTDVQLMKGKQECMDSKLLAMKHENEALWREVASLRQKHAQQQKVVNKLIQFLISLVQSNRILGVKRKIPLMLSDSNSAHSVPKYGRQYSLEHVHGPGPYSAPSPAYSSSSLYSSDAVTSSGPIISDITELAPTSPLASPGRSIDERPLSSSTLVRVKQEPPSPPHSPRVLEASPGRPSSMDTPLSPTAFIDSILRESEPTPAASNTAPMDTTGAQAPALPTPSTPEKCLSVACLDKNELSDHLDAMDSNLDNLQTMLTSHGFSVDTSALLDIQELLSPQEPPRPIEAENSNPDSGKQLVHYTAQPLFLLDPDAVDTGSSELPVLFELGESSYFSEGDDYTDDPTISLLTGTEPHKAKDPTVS
Molecule,"HSF1 activation (DNA binding to HSE, EMSA) in the reconstituted system [1]",binding result (HSF1)
eEF1A purified from rat liver (from UniProt P62630 2-462),5%,–
HSE oligonucleotide (dsDNA) DNA 1: GCCTCGAATGTTCGCGAAGTTTCG DNA 2: CGAAACTTCGCGAACATTCGAGGC,–,binds
